These results are taken from patent US12503511 (COMPASS THERAPEUTICS, dated 2025).

Where a chain is given by its changes, count along the chain named.

The target in assay [1] is T1, cyno PD-L1 expressed on cells (cynomolgus).
T1 construct: whole, on cells; also called cynomolgus PD-L1
Description: cell binding titration, HEK cells expressing cyno PD-L1.

Assay [2] has as its target T2, human PD-L1 expressed on cells (human, UniProt Q9NZQ7 19-290).
T2 construct: also called huPDL1; human PD-L1 on HEK cells
Kind of assay: cell binding titration, HEK cells expressing human PD-L1.

Assay [3] deals with T3, purified recombinant His tagged human PD-L1 (human, UniProt Q9NZQ7 19-238).
T3 construct: not shown: His tag
Description: SPR KD; fold improvement, reference taken as parent mAb24.

The target in assay [4] is T4, murine PD-L1 expressed on cells (murine, UniProt Q9EP73 19-290).
T4 construct: whole, on cells; also called muPDL1; mouse PD-L1
Description: cell binding titration, A20 cells expressing murine PD-L1.

Assay [5] addresses T3, purified recombinant His tagged human …. Kind of assay: SPR (Carterra MX96), antibody on chip, His-tagged human PD-L1 injected.
The target of assay [6] is T1, cyno PD-L1 expressed on cells. Description: cell binding EC50 on HEK-cyno PD-L1; fold improvement, reference taken as parent mAb24.
Assay [7] addresses T2, human PD-L1 expressed on cells. Description: cell binding EC50 on HEK-human PD-L1; fold improvement, reference taken as parent mAb24.
Assay [8] deals with T4, murine PD-L1 expressed on cells. Description: cell binding EC50 on A20-murine PD-L1; fold improvement, reference taken as parent mAb24.
The target in assay [9] is T2, human PD-L1 expressed on cells. Description: cell binding titration (MFI); binder and target taken from the legend paragraph 94 and paragraph 377 (parental clone mAb1, CHO cells expressing human PD-L1); the panel itself prints 'mAb28' and 'CHO/HuPD-1'.
Assay [10] concerns the target T1, cyno PD-L1 expressed on cells. Description: cell binding titration (MFI); binder and target taken from the legend paragraph 94 and paragraph 377 (parental clone mAb1, CHO cells expressing cynomolgus PD-L1); the panel itself prints 'mAb28' and 'CHO/CyPD-1'.
Assay [11] has as its target T5, purified recombinant His tagged human PD-1 (human, UniProt Q15116 25-170).
T5 construct: not shown: His tag
Description: SPR KD; fold improvement over parent mAb25.

Assay [12] addresses T6, cyno PD-1 expressed on cells (cynomolgus).
T6 construct: whole, on cells; also called cyPD-1; cynomolgus PD-1
Description: cell binding titration, CHO cells expressing cyno PD-1.

Assay [13] concerns the target T7, human PD-1 expressed on cells (human, UniProt Q15116 25-288).
T7 construct: also called huPD-1; CHO cells expressing human PD-1
Kind of assay: cell binding titration, CHO cells expressing human PD-1.

In assay [14] the target is T8, murine PD-1 expressed on cells (murine, UniProt Q02242 25-288).
T8 construct: whole, on cells; also called muPD-1; mouse PD-1
T8 sequence (looked up): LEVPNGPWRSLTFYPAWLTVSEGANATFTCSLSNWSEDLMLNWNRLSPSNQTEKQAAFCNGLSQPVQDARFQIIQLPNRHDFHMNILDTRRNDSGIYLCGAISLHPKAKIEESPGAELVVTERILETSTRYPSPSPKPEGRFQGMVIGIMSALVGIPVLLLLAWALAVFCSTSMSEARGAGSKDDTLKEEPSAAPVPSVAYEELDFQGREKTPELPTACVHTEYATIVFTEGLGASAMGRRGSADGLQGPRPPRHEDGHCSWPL
Description: cell binding titration, CHO cells expressing murine PD-1.

The target in assay [15] is T5, purified recombinant His tagged human …. Description: SPR (Carterra MX96), antibody on chip, His-tagged human PD-1 injected.
Assay [16] concerns the target T6, cyno PD-1 expressed on cells. Description: cell binding EC50 on CHO-cyno PD-1; fold improvement over parent mAb25.
The target of assay [17] is T7, human PD-1 expressed on cells. Description: cell binding EC50 on CHO-human PD-1; fold improvement over parent mAb25.
Assay [18] shares this target. Description: cell binding titration (MFI) on CHO cells expressing human PD-1, panel titled 'Cell Binding: CHO/HuPD-1'.
The target in assay [19] is T8, murine PD-1 expressed on cells. Kind of assay: cell binding titration (MFI) on CHO cells expressing mouse PD-1, panel titled 'Cell Binding: CHO/MsPD-1'.
Assay [20] has as its target T6, cyno PD-1 expressed on cells. Description: cell binding titration (MFI) on CHO cells expressing cynomolgus PD-1, panel titled 'Cell Binding: CHO/CyPD-1'.

T4 sequence (Q9EP73 19-290): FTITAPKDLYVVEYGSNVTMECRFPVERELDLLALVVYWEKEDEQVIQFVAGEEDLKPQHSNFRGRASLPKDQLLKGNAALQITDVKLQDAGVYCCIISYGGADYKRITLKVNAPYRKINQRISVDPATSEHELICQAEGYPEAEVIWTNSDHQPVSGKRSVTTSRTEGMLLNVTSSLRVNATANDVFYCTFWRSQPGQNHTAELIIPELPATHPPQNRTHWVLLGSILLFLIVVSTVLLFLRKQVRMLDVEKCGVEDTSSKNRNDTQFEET
T7 sequence (Q15116 25-288 limits assumed): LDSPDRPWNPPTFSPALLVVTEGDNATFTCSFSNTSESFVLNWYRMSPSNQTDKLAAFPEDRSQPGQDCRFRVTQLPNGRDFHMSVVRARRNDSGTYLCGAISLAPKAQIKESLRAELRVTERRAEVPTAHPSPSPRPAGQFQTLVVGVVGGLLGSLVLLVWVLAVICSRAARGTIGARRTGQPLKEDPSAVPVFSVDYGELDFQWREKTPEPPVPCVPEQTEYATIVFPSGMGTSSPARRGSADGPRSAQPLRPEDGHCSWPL
T3 sequence (Q9NZQ7 19-238 limits assumed): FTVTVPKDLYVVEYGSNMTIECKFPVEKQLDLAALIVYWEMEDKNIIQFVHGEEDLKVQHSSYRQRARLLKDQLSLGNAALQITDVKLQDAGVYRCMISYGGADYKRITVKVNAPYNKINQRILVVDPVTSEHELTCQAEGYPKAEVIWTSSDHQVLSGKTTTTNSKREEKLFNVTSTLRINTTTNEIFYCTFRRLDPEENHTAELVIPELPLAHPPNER
T2 sequence (Q9NZQ7 19-290 limits assumed): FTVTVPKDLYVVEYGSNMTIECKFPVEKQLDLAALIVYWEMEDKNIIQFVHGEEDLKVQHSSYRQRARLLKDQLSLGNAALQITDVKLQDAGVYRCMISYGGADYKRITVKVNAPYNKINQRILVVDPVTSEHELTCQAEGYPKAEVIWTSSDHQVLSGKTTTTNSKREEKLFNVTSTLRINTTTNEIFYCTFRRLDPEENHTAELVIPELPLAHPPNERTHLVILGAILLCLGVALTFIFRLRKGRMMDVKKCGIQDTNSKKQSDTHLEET
T5 sequence (Q15116 25-170 limits assumed): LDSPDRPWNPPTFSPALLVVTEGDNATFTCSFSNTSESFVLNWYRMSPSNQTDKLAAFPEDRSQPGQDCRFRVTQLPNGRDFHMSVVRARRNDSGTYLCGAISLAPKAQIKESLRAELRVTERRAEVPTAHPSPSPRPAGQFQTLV

B1: mAb1 (antibody, V domains shown)
VH: QVQLVQSGAEVKKPGSSVKVSCKASGGTFSSYAINWVRQAPGQGLEWMGGIIPILGAATYAQKFQGRVTITADESTSTAYMELSSLRSEDTAVYYCARLKGELKDAFDIWGQGTLVTVSS
VL: not shown
notes: also called parental clone mAb1; anti-PD-L1 antibody mAb1
A word on the EC50: it is the concentration needed to bring the measured effect to its halfway point. The low end stands for higher potency in that assay, the high end for lower potency in that assay. Usually Kd stands for the free concentration of one partner at which half of the binding sites on the other are occupied at equilibrium, for simple one-to-one binding. What is called EC50 (read off the curve) is the concentration at which the effect is half-maximal. Turning to B1, the values for the concentration for a half-maximal effect (EC50) in [1], in assay [2] and in assay [4] were 0.09 nM, 0.04 nM and 0.74 nM, respectively. For the same molecule, the “Fold Improvement” value was 1.1 fold in [3], 3.21 fold in assay [6], 3.3 fold in assay [7] and 5.26 fold in [8]. Besides, the equilibrium dissociation constant (Kd) in [5] turned out to be 4.16 nM. Further, the results for the “EC50 (read off the curve)” value in assay [9] and in assay [10] were approximately 0.1 nM and approximately 0.04 nM, respectively.

B2: mAb20 (antibody, V domains shown)
VH: B1 VH with L55F, A57K, L99R
VL: not shown
As for B2, the EC50 turned out to be 0.12 nM in assay [1], 0.13 nM in assay [2] and 2.66 nM in [4]. In addition, the “Fold Improvement” value amounted to 0.1 fold in [3], 2.31 fold in [6], 1 fold in assay [7] and 1.47 fold in assay [8]. For the same molecule, the Kd in [5] amounted to 53.9 nM.

B3: mAb28 (antibody, V domains shown)
VH: EVQLLESGGGLVQPGGSLRLSCAASGFTFSSYAMLWVRQAPGKGLEWVSAISNSGTYTYYADSVKGRFTISRDNSKNTLYLQMNSLRAEDTAVYYCARGLDFIVGYTGNDYWGQGTLVTVSS
VL: not shown
notes: also called parental clone mAb28; anti-PD-1 IgG1 antibody (mAb28)
For B3, the “Fold improvement over Parent” value in assay [11] is 43 fold; in [16], 5.8 fold; in assay [17] it was 0.2 fold. Also, the EC50 in assay [12] was 1.48 nM; in [13], 3.94 nM; in assay [14], 0.814 nM. Also, in [15], the Kd was 5.6 nM. In addition, the figures for the “EC50 (read off the curve)” value in assay [18], in [19] and in assay [20] were approximately 0.6 nM, approximately 0.3 nM and approximately 0.4 nM, respectively.
